From US20180003720A1

Biological target: γ-H2AX peptide standard (synthetic peptide …, serine at position 27 phosphorylated)
Assay: sandwich chemiluminescent ELISA: plate-coated JBW301 captures the γ-H2AX peptide standard; detected with rabbit polyclonal anti-H2AX (Abcam) and goat anti-rabbit HRP

Chain of γ-H2AX peptide standard (synthetic peptide …, serine at position 27 phosphorylated) (peptide, as listed by the source): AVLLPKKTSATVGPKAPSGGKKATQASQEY

Average RLU (n = 3) at 5 pM γH2AX standard: 993000 RLU | Average RLU (n = 3) at 10 pM γH2AX standard: 2.02e+06 RLU | Average RLU (n = 3) at 20 pM γH2AX standard: 4.6e+06 RLU | Average RLU (n = 3) at 40 pM γH2AX standard: 1e+07 RLU | Average RLU (n = 3) at 80 pM γH2AX standard: 2.08e+07 RLU | Average RLU (n = 3) at 160 pM γH2AX standard: 3.74e+07 RLU | Average RLU (n = 3) at 320 pM γH2AX standard: 5.88e+07 RLU | Average RLU (n = 3) at 640 pM γH2AX standard: 7.92e+07 RLU
Substance: Anti-γ-H2AX (Ser139) mouse monoclonal antibody, clone JBW301 (Millipore)
